Measured values reported in patent WO2009041734A1 (dated 2009).
Numbering of substitutions follows the chain as printed.

T1: human thrombopoietin receptor (human c-Mpl) (human, UniProt P40238 26-635)
T1 sequence (looked up): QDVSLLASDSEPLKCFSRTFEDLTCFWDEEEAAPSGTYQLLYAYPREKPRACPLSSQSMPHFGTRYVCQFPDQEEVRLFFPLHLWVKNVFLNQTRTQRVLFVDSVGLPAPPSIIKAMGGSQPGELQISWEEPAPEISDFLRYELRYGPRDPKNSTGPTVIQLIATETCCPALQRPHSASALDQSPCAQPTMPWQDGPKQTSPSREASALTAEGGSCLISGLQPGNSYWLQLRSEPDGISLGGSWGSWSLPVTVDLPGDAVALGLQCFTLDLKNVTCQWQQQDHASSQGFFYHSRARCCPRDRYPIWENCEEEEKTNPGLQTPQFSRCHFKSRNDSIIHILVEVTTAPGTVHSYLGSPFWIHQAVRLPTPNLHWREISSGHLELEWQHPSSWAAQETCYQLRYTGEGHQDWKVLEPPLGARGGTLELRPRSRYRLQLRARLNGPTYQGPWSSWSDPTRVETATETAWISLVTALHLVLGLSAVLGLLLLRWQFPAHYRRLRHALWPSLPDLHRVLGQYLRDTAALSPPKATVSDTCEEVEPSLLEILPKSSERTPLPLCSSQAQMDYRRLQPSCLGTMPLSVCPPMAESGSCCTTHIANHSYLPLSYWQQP

B1: anti-human c-Mpl agonist antibody 4-49 (IgG1) (antibody, V domains shown)
VH: EEQLVESGGGLVQPGRSLRLSCTASGFTFDDYAMYWVRQVPGKGLEWVSGISWNSGSIGYADSVKGRFTVSRDNAKNSLYLQMNSLRAEDTALYYCAKALWFGEFPHYYGMDVWGQGTTVTVSS
VL: AIQLTQSPSSLSASVGDRVTITCRASQGISSTLAWYQQKPGKAPKLLIYDASSLESGVPSRFSGSGSGTDFTLTISSLQPEDFATYYCQQFNSYPYTFGQGTKLEIKR
B2: anti-human c-Mpl agonist antibody 6-4-50 (IgG1) (antibody, V domains shown)
VH: EVQLVESGGGLVQPGRSLRLSCATSGFTFDNYAMYWVRQAPGKGLEWVSGISWNSGDIGYADSVKGRFTISRDNAKNSLYLQMNSLRAEDTALYYCARDAGFGEFHYGLDVWGQGTTVTVSS
VL: B1 VL with T32A, A43V, Y96W, L104V
B3: anti-human c-Mpl agonist antibody 7-10 (IgG1) (antibody, V domains shown)
VH: EVQLVESGGGLVQPGRSLRLSCAASGFTFDDYAMHWVRQAPGKGLEWVSGISWNSGSIGYADSVKGRFTISRDNAKNSLYLQMNSLRAEDTALYYCAKNLWFGEFRYWYFDLWGRGTLVTVSS
VL: AIQLTQSPSSLSASVGDRVTITCRASQGISSALAWYQQKPGKAPKLLIYDASSLESGVPSRFSGSGSGTDFTLTISSLQPEDFATYYCQQFNSYPLTFGGGTKVEIK
B4: 7-10G4344uhm light chain mutant 7-10VL_Y94F (antibody, V domains shown)
VH: B3 VH
VL: B3 VL with Y94F
B5: anti-human c-Mpl agonist antibody 6-5-2 (IgG1) (antibody, V domains shown)
VH: EVQLVECGGGLVQPGRSLRLSCAASGFTFDDYAMHWVRQAPGKGLEWVSGISWNSGSIGYADSVKGRFTISRDNAKNSLYLQMNSLRAEDTALYYCAKPIWFGEWGNYYGMDVWGQGTTVTVSS
VL: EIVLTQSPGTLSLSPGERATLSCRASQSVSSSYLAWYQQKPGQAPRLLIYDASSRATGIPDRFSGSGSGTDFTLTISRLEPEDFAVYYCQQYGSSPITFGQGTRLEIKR

How the values were obtained:
[1] = molecular target: T1, human thrombopoietin receptor (human …); assay: cell-based or functional assay
[2] = molecular target: T1, human thrombopoietin receptor (human …); assay: flow cytometry on FM3A-hMpl cells, antibody at 1, 0.1, 0.01 ug/mL

Row | Binder | UT7/TPO (Max), maximum activity relative to PEG-rHuMGDF [1] | agonist activity relative to 7-10G4344uhm, UT-7/TPO cell proliferation assay [1] | binding activity relative to 7-10G4344uhm [2]
1 | B1 | > 80% | – | –
2 | B2 | > 80% | – | –
3 | B3 | > 90% | – | –
4 | B4 | – | ~0.1 fold of 7-10G4344uhm | ~0.1 fold of 7-10G4344uhm
5 | B5 | > 50% | – | –
